{"source": "paper PMC5995969", "about": "“Structural basis for the regulation of human 5,10-methylenetetrahydrofolate reductase by phosphorylation and S-adenosylmethionine inhibition” (Nature Communications, 2018)", "proteins": {"B1": {"name": "CIP-treated HsMTHFR1–656 (dephosphorylated) (enzyme)", "chain": "not shown", "notes": "human 5,10-methylenetetrahydrofolate reductase (MTHFR), residues 1–656, numbered according to NP_005948.3; Same construct as m1 after removal of 9 or 10 phosphate groups by CIP; Some residues of the cleaved C-terminal tag may be left; also called HsMTHFR_(1–656) (CIP); dephosphorylated HsMTHFR_(1–656); not shown: FLAG, C-terminal, cleaved; His10, C-terminal, cleaved"}, "B2": {"name": "full-length recombinant human MTHFR (HsMTHFR1–656), as purified (phosphorylated) (enzyme)", "chain": "not shown", "modifications": "phosphorylated with partial occupancy, up to ten sites occupied simultaneously: Ser9, Ser10, Ser18, Ser20, Ser21, Ser23, Ser25, Ser26, Ser29, Ser30, Thr34, Tyr90, Thr94, Ser103, Ser394, Thr451", "notes": "human 5,10-methylenetetrahydrofolate reductase (MTHFR), 656 amino acids, residues 1–656, numbered according to NP_005948.3; also called 5,10-methylenetetrahydrofolate reductase; phosphorylated HsMTHFR_(1–656); source: Sf9 (baculovirus), purified (Ni-NTA, Superdex 200, tag cleaved by TEV protease, re-passaged over Ni-NTA); not shown: FLAG, C-terminal, cleaved; His10, C-terminal, cleaved"}, "B3": {"name": "HsMTHFR38–644 (domain or fragment)", "chain": "not shown", "notes": "Not phosphorylated; Native and SeMet-derivatized protein were crystallized; also called truncated HsMTHFR; crystallized construct"}}}
{"target": "the molecule itself", "assay": "native MS; protein desalted into 50 mM ammonium acetate pH 6.5, infused directly, positive ion ESI-QTOF; as purified or after CIP treatment"}
{"protein": "B1", "stoichiometry N": 2}
{"protein": "B2", "stoichiometry N": 2}
{"protein": "B3", "stoichiometry N": 2}
